Reference: doi:10.1101/2023.06.15.543498

Biological target: E. coli 70S ribosomes without a bound tRNA (E. coli (endogenous in strain MRE600)) (UniProt P0A7L0)
Assay: populations of particle classes in cryo-EM samples

Substance | Kd [µM]
EQ2-EttA (hydrolysis-deficient EQ2 mutant of E. coli EttA, Energy-dependent translation throttle A) (from UniProt P0A9W3 1-555) (enzyme) | 62
EQ2-Uup (hydrolysis-deficient EQ2 mutant of E. coli Uup) (from UniProt P43672 1-635) (enzyme) | > 12
EQ2-YbiT (hydrolysis-deficient EQ2 mutant of E. coli YbiT) (from UniProt P0A9U3 1-530) (enzyme) | 1.2
EQ2-YheS (hydrolysis-deficient EQ2 mutant of E. coli YheS) (from UniProt P63389 1-637) (enzyme) | > 19
